Test results published in patent publication US6534281.

Legend:
human proinsulin (human) [1] = target: human proinsulin (human) (UniProt P01308); assay: sandwich immunoassay, one-step, against C-peptide calibration; proinsulin 200 ng/ml; CPT-3-F11 on particles, labeled antibody 9101
human proinsulin (human) [2] = target: human proinsulin (human) (UniProt P01308); assay: sandwich immunoassay, one-step, against C-peptide calibration; proinsulin 400 ng/ml; CPT-3-F11 on particles, labeled antibody PEP-001
[3] = target: modified C-peptide (human C-peptide having Arg-Arg bound to its N-terminal and Lys-Arg bound to its C-terminal) (human); assay: sandwich immunoassay, one-step, against C-peptide calibration; modified C-peptide 5 ng/ml; CPT-3F-11 on particles, labeled antibody 9101
human C-peptide (human) [4] = assay: ELISA on immobilized C-peptide; labeled antibody 0.1 ug/ml, free C-peptide 10 ug/ml
human proinsulin (human) [5] = target: human proinsulin (human) (UniProt P01308); assay: sandwich immunoassay, two-step, against C-peptide calibration; proinsulin 400 ng/ml; CPT-3-F11 on particles, labeled antibody PEP-001
human C-peptide (human) [6] = assay: sandwich immunoassay, one-step; CPT-3F-11 on particles, labeled antibody 9101
human proinsulin (human) [7] = target: human proinsulin (human) (UniProt P01308); assay: sandwich immunoassay, two-step, against C-peptide calibration; proinsulin 200 ng/ml; CPT-3-F11 on particles, labeled antibody PEP-001
human proinsulin (human) [8] = target: human proinsulin (human) (UniProt P01308); assay: sandwich immunoassay, two-step; proinsulin 50 ng/ml; CPT-3F-11 on particles, labeled antibody 9101
human proinsulin (human) [9] = target: human proinsulin (human) (UniProt P01308); assay: sandwich immunoassay, one-step, against C-peptide calibration; proinsulin 200 ng/ml; CPT-3-F11 on particles, labeled antibody PEP-001
human C-peptide (human) [10] = assay: ELISA on immobilized C-peptide; labeled antibody 10 ug/ml, free C-peptide 0 ug/ml
[11] = target: modified C-peptide (human C-peptide having Arg-Arg bound to its N-terminal and Lys-Arg bound to its C-terminal) (human); assay: sandwich immunoassay, two-step, against C-peptide calibration; modified C-peptide 5 ng/ml; CPT-3F-11 on particles, labeled antibody 9101
human proinsulin (human) [12] = target: human proinsulin (human) (UniProt P01308); assay: sandwich immunoassay, one-step, against C-peptide calibration; proinsulin 50 ng/ml; CPT-3-F11 on particles, labeled antibody PEP-001

human C-peptide (human), sequence (peptide, as listed by the source): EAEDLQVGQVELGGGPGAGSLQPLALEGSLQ
UniProt P01308, sequence (P01308 25-110): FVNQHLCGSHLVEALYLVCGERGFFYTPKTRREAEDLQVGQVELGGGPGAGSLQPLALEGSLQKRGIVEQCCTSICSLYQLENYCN
modified C-peptide (human C-peptide having Arg-Arg bound to its N-terminal and Lys-Arg bound to its C-terminal) (human), sequence (peptide, as listed by the source): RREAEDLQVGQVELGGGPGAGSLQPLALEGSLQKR

anti-human C-peptide monoclonal antibody CPT-3-F11 (Dako)
Cross-reactivity (%) to Human Proinsulin (human proinsulin (human) [1]): 2.6%
Cross-reactivity (%) to Human Proinsulin (human proinsulin (human) [2]): > 15%
Cross-reactivity (%) to Modified C-peptide [3]: 0.5%
Absorbance (absorbance at 405 nm) (human C-peptide (human) [4]): 0
Binding Ratio (human C-peptide (human) [4]): 0%
Cross-reactivity (%) to Human Proinsulin (human proinsulin (human) [5]): > 15%
2S/N value (human C-peptide (human) [6]): 0.008 ng/mL
Cross-reactivity (%) to Human Proinsulin (human proinsulin (human) [7]): > 30%
counts of chemiluminescence (human proinsulin (human) [8]): 4400 counts
Cross-reactivity (%) to Human Proinsulin (human proinsulin (human) [9]): > 30%
Absorbance (absorbance at 405 nm) (human C-peptide (human) [10]): 2.17
Cross-reactivity (%) to Modified C-peptide [11]: 0.5%
Cross-reactivity (%) to Human Proinsulin (human proinsulin (human) [12]): 56.8%
